Test results reported in the supplement of paper PMC9170038.

System: MS2 coat protein
Assay: apparent KD of MS2 coat protein; designed switch direction (-1 OFF switch, 1 ON switch): -1; higher = weaker reporter binding
How it was run: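 Apparent KD, taken as the median over clusters for each design, was obtained by curve-fitting normalised cluster fluorescence. Designed RNA switches had been transcribed on Illumina chips by stalled E. coli RNA polymerase and titrated with SNAP-549-labelled MS2 coat protein, doubling from 0.7 or 1.5 nM to 3 µM.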

[1] = Eterna round: R95, input ligand: FMN 200 uM
[2] = Eterna round: R95, input ligand: microRNA oligo, concentration not stated
[3] = Eterna round: R95, input ligand: none
[4] = input ligand: microRNA oligo, concentration not stated

Sequence	apparent KD of MS2 coat protein (input ligand: FMN 200 uM)	apparent KD of MS2 coat protein (input ligand: none)	apparent KD of MS2 coat protein [1]	apparent KD of MS2 coat protein [2]	apparent KD of MS2 coat protein [3]	apparent KD of MS2 coat protein [4]
UGCUGACGAGGAUAUACAUGAGGAUCACCCAUGUUGGUUCAGCGACUUCGGUCGCAAUGUAGAAGGCGUCAGCA [E3/9-A5] (Eterna round: R97, puzzle: Exclusion 3)	230 nM	523 nM				
GUAGAGUAAGGAUAUUGAGAAUAGGAUAGAAUGGUUAGAAUCAAGAAGGUACAUGAGGAUCACCCAUGUAAUGU [Excluse me!!!! 6 - Jieux - Exclusion 4] (puzzle: Exclusion 4)			16.8 nM	22.2 nM	19.7 nM	
UUUUAACAUGAGGAUCACCCAUGUGAGGAUAUCGAAAUUUAUAUUAAUAUUAUUAUUUCGAGAAGGCACAUUUU [JMF 41] (puzzle: Exclusion 1)				155 nM		
UGAUGUACUCAGGAUAUGAGUAGCUUUCGAGCAUCAGAAGGGAGUACAUGAGGAUCACCCAUGUUGGCCAUGUU [EX6 C.9] (Eterna round: R97, puzzle: Exclusion 6)	81.2 nM	683 nM				
GGAAGAGAGAUAGGAUAUUAAAGGAAGAUGGUGAGAGAGACAUGAGGAUCACCCAUGUAAAGGAAUAAGAAGGGUCAGAAGGAA [EXNG2 V2 g] (Eterna round: R96, puzzle: Exclusion NG 2)	137 nM	184 nM				104 nM
UAAUAAUAGCAAGGAUAUAGUUAUUAUAAUAUACUAGAAGGUGCACAUGAGGAUCACCCAUGUUUUAUAAUUUGUAAUUUAAAU [3rd something] (Eterna round: R96, puzzle: Exclusion NG 1)						20.9 nM
ACUAGAUGAGGAUAUGCACAUUUUAGUGUUCCUCUAGAUUAACAUGAGGAUCACCCAUGUAGAAGGCGUCAUUU [Exclusion 2 - 13] (Eterna round: R96, puzzle: Exclusion 2)	119 nM	84.2 nM				59.1 nM
AAGAGGAUUACAGGAUAUGAAGCUAAAACGGCGUUAGAAGGGUAUACAGAGUUACAUGAGGAUCACCCAUGUUGUGAUUUCUAA [AK ExNG1-V2-4.2] (Eterna round: R96, puzzle: Exclusion NG 1)	48.4 nM	49.2 nM				38.4 nM
AACACGGCAGGAUAUACUUGAGGAUCACCCAAGUUGUUCGCAACAUAAAAUAACUCUUGUAGAAGGGCCAAAAG [Isorbi] (Eterna round: R97, puzzle: Exclusion 3)	220 nM	33.6 nM				
ACAAAGCUUUUUGCUCGUCACAUGAGGAUCACCCAUGUGAUAUAAUGAAAAUUAUAUGACAUCCCACUAGGACAUGU [I did it?] (Eterna round: R97, puzzle: Sensor, turn-off variant 1)	18.5 nM	20.9 nM				
GCCUACCAGCUAGGAUAUGCAGUACAGUAAAAUGUAGAAGGAGCACGAUCCAGACAUGAGGAUCACCCAUGUGGGCGGCAGGCA [Raartive] (Eterna round: R96, puzzle: Exclusion NG 1)	19.7 nM	22.8 nM				17 nM
AGAUGGCGAGGAUAUACAUGAGGAUCACCCAUGUGAAGAUAAAGAGUGAGGAAGAAAAGUAGAAGGCGCUGUCA [Mat - Exclusion 3 - Mod of Salish D28] (Eterna round: R96, puzzle: Exclusion 3)						103 nM
AGUAGAUCUACGCUUGCGUGGAUCUGCUAUGCAGGUGUCACAUGAGGAUCACCCAUGUCCUCAUUUGUUCGUCUUAU [JL turnoff v2 99.16] (puzzle: Sensor v3, turn-off variant 2)			18.7 nM	33.8 nM	15.5 nM	
UUAUUAAUUAAGACUGCAAGAUCACAUGAGGAUCACCCAUGUCAGGAUAUCAGCUCGUGUAGAGCUGAGAAGGGACAAGCAGUC [ExNG3/15-A3] (Eterna round: R96, puzzle: Exclusion NG 3)	314 nM	123 nM				97.5 nM
UGAGCUUCAGGAUAUACGUGACGUCCGUGAGGACGAAGGUUACAUGAGGAUCACCCAUGUAGAAGGGAAGUUCU [Mat - Exclusion 2 - JL Mod - D31] (Eterna round: R97, puzzle: Exclusion 2)	60.8 nM	31.6 nM				
GUGUACAGAGGAUAUACUCGAAUCUAGCGAAGCUAGGUUUGACAUGAGGAUCACCCAUGUAGAAGGCUGUACAC [Dot plot directed A] (puzzle: Exclusion 2)				13.8 nM		
CUGCUGGAGCGGCGCUUUGGUCGUACAUGAGGAUCACCCAUGUAGGAUAUGGUAAAAUUUGCUUGCUAGAAGGAUAGAGUGGUC [salish99_ExNG3_r04_615] (Eterna round: R96, puzzle: Exclusion NG 3)	140 nM	80.3 nM				64.5 nM
